The source of these data is article PMC5668318.

This experiment concerns the target 3XFLAG-Kenny LIR motif mutant (F7A/L10A) (Drosophila) (UniProt Q9GYV5). Briefly: co-IP; anti-FLAG M2-agarose immunoprecipitation from lysates of transfected S2R+ cells, 4 °C overnight, elution with 3XFLAG peptide, blot for GFP.
Chain of UniProt Q9GYV5 (Q9GYV5 whole entry F7A/L10A): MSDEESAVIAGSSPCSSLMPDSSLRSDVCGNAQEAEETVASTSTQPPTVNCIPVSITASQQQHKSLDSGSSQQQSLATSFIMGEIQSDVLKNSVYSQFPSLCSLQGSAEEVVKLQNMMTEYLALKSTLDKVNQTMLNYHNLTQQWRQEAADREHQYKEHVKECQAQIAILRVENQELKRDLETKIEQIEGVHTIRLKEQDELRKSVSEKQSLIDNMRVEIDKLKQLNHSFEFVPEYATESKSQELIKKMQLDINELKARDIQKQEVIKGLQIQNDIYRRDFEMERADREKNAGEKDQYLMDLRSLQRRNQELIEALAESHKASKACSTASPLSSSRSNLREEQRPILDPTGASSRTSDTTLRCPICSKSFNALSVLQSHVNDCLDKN

With “eGFP-Atg8a (from UniProt Q9W2S2 1-121) (natural protein)”, the percent decrease in the interaction against wild-type 3XFLAG-Kenny worked out at 62%.
